Patent US20130064834A1 (published 2013)

Tests used:
Human PCSK9-myc-myc-his [1] = biological target: T1, Human PCSK9-myc-myc-his (human, UniProt Q8NBP7 31-692); test: SPR, mAb captured, 25C
T1 construct: also called hPCSK9-mmh; hPCSK9
Experimental: Each selected antibody was captured at a flowrate of 2 μl/min for 6 min on a goat anti-human IgG polyclonal antibody surface created through direct chemical coupling to a BIACORE™ chip to form a captured antibody surface.

Human PCSK9-myc-myc-his [2] = biological target: T1, Human PCSK9-myc-myc-his; test: ELISA, mAb coated, 1.2 nM antigen;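 also: antigen allowed to bind for 1 h at room temperature, then captured protein revealed with an HRP-linked polyclonal anti-myc antibody and read as optical density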
Text: (§1) After 1 hr binding at RT, the plate was washed and bound test protein detected using HRP-conjugated anti-myc polyclonal antibody (++=OD>1.0; +=OD 0.4-1.0; −=OD<0.4).

hPCSK9(D374Y)-mmh = biological target: T2, hPCSK9(D374Y)-mmh (human, UniProt Q8NBP7 31-692); test: ELISA, mAb coated, 1.2 nM antigen;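 also: antigen allowed to bind for 1 h at room temperature, then captured protein revealed with an HRP-linked polyclonal anti-myc antibody and read as optical density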
T2 construct: also called hPCSK(D374Y)-mmh
Text: as §1

[3] = biological target: T3, mouse PCSK9, myc-myc-his tagged (mouse, UniProt Q80W65 35-694); test: ELISA, mAb coated, 1.2 nM antigen;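 also: antigen allowed to bind for 1 h at room temperature, then captured protein revealed with an HRP-linked polyclonal anti-myc antibody and read as optical density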
T3 construct: also called mPCSK9-mmh; mPCSK9
Text: as §1

[4] = biological target: T4, Chimeric protein #1 (mPro-hCat-mC-term-mmh) (mouse; human, UniProt Q80W65 35-694); test: ELISA, mAb coated, 1.2 nM antigen;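 also: antigen allowed to bind for 1 h at room temperature, then captured protein revealed with an HRP-linked polyclonal anti-myc antibody and read as optical density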
T4 chain: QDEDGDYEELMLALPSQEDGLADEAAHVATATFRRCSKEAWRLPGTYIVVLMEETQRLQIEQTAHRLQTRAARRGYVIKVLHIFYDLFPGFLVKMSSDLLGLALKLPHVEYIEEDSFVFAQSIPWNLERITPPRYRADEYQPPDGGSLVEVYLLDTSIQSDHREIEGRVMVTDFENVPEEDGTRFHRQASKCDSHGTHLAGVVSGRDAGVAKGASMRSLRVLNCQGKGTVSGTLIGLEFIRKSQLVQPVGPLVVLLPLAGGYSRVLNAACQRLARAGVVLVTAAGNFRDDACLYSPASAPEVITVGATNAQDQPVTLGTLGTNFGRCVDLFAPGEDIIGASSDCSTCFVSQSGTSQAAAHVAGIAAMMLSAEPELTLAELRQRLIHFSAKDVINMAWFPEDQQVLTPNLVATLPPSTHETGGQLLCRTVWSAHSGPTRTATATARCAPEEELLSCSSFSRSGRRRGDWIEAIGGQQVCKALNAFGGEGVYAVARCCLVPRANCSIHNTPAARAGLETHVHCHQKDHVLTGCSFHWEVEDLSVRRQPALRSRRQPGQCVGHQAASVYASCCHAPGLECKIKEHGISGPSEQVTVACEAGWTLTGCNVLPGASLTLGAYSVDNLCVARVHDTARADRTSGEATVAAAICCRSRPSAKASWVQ
Text: as §1

[5] = biological target: Chimeric protein #2 (hPro-mCat-mC-term-mmh) (human; mouse, UniProt Q80W65 19-694); test: ELISA, mAb coated, 1.2 nM antigen
Text: as §1

[6] = biological target: T5, Chimeric protein #3 (mPro-mCat-hC-term-mmh) (mouse; human); test: ELISA, mAb coated, 1.2 nM antigen
T5 chain: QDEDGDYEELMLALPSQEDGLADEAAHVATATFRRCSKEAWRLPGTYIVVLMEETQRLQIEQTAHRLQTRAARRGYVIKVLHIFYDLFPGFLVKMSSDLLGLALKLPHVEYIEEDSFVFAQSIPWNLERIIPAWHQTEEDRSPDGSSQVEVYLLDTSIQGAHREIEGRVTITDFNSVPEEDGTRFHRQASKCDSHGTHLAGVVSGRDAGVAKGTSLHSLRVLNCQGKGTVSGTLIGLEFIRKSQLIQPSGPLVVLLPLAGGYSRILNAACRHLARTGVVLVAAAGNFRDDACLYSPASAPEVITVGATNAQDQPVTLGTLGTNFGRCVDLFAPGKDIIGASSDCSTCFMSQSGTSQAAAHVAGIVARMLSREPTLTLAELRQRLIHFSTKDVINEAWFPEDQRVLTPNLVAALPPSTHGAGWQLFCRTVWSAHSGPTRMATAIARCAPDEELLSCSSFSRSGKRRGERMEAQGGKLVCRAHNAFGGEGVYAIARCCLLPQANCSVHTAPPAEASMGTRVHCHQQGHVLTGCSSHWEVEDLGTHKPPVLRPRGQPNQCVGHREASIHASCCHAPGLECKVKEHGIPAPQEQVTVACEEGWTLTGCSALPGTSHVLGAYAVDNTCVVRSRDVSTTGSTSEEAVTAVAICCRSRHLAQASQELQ
Text: as §1

[7] = biological target: T3, mouse PCSK9, myc-myc-his tagged; test: SPR, mAb amine-coupled, 25C, pH 7.4
Text: (§2) Briefly, mAbs were immobilized onto BIACORE™ CM5 sensor chips via amine coupling.

[8] = biological target: T6, his-tagged Syrian golden hamster (Mesocricetus auratus) PCSK9 (Syrian golden hamster (Mesocricetus …)); test: SPR, mAb amine-coupled, 25C, pH 7.4
T6 construct: also called maPCSK9-h; maPCSK9
T6 chain: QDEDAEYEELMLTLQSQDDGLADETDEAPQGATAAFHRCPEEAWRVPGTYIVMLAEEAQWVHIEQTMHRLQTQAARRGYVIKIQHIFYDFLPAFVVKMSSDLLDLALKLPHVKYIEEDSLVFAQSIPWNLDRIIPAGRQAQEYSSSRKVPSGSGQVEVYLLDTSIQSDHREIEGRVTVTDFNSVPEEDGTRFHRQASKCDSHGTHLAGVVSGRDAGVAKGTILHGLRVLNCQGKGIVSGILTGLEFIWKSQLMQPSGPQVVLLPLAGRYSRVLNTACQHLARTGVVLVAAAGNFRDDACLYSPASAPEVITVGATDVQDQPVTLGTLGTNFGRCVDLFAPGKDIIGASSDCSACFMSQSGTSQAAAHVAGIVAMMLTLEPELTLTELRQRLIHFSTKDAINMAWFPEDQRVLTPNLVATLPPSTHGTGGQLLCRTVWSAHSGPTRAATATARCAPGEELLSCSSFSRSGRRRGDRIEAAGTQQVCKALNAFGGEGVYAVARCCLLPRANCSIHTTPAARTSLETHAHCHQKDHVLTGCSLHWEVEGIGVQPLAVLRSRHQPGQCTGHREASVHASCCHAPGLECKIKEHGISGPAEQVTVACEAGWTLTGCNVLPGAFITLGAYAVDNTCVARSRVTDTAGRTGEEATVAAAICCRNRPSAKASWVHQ
Text: as §2

[9] = biological target: T7, rat (Rattus norvegicus) PCSK9, myc-myc-his tagged (rat (Rattus norvegicus), UniProt P59996 31-691); test: SPR, mAb amine-coupled, 25C, pH 7.4
T7 construct: also called rPCSK9-mmh; rPCSK9
Text: as §2

[10] = biological target: T5, Chimeric protein #3 …; test: SPR, mAb captured on anti-hFc, 100 nM antigen
Experimental: Changes in RU due to the binding of each protein to the mAb surface was determined.

T7 sequence (P59996 31-691 limits assumed): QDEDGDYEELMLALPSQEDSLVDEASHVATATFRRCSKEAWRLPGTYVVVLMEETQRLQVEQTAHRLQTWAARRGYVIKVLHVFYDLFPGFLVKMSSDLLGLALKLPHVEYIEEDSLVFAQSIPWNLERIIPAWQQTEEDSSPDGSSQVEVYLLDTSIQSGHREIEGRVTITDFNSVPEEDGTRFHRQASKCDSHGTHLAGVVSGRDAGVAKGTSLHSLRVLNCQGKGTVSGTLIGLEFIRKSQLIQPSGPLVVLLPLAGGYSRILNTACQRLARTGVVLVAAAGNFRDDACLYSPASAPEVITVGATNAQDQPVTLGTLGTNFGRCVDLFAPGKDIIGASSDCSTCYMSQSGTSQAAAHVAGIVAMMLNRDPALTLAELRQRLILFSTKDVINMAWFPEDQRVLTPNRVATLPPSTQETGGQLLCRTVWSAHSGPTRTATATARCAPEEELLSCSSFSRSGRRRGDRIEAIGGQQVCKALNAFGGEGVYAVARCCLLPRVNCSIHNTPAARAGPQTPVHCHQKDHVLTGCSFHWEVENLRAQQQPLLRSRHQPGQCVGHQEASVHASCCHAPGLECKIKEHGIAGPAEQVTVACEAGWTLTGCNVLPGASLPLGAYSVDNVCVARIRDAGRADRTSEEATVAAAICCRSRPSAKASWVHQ

B1: H1H316P (antibody, V domains shown)
VH: EVQLVESGGGLVQPGGSLRLSCAASGFTFNNYAMNWVRQAPGKGLDWVSTISGSGGTTNYADSVKGRFIISRDSSKHTLYLQMNSLRAEDTAVYYCAKDSNWGNFDLWGRGTLVTVSS
VL: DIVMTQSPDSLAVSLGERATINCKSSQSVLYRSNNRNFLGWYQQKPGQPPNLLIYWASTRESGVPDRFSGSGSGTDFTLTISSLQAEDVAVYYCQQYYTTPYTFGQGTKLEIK
notes: Fully human mAb made in CHO cells; also called mAb316P
For B1, the Kd (Human PCSK9-myc-myc-his [1]) was 0.377 nM, the T1/2 (Human PCSK9-myc-myc-his [1]) was 42 min and the OD (Human PCSK9-myc-myc-his [2]) was over 1 od. It also gave an OD (hPCSK9(D374Y)-mmh) of over 1 od, an OD [3] of over 1 od and an OD [4] of over 1 od. For the same binder, the OD [5] was over 1 od, the OD [6] was over 1 od and the Kd [7] was 4.46 nM. For the same binder, the T1/2 [7] was 10 min, the Kd [8] was 8.35 nM and the T1/2 [8] was 8 min. For the same binder, the Kd [9] was 24.1 nM, the T1/2 [9] was 2 min and the “change in RU” value [10] was 467 RU.
